From patent publication US20200270627A1 (COMMONWEALTH SCIENTIFIC AND INDUSTRIAL RESEARCH ORGANISATION, published 2020)

T1: RGA4 1-171:CFP (rice, UniProt F7J0M4 1-171)
T1 construct: not shown: C-terminal CFP tag
T1 sequence (looked up): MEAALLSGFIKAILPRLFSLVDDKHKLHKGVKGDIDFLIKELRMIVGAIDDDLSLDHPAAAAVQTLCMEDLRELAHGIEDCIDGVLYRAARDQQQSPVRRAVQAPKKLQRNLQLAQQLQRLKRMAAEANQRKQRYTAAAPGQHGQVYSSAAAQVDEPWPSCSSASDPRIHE


Target: T1, RGA4 1-171:CFP
Assay: co-immunoprecipitation with anti-GFP antibodies from N. benthamiana leaf cells, anti-HA immunoblot

| binding result | Binder |
| --- | --- |
| no binding | Sr33 1-160:HA (other, also called full CC domain of Sr33 fused to a C-terminal HA tag; not shown: C-terminal HA tag (vector pBIN19-35S::GTW:3HA)) MDIVTGAIAKLIPKLGELLVGEYKLHKGVKKNIEDLLKELKTMNAALIKIGEVPPDQLDSQDKLWADEVRELSYVIEDAVDKFLVRVHGVEPDDNTNGFKGLMKRTTKLLKKVVDKHGIAHAIKDIKKELQEVAARRDRNKFDGIASIPTEAIDPRLRAL |
| no binding | Sr50 1-163:HA (other, Transiently expressed in N. benthamiana leaf cells under the 35S promoter; also called full CC domain of Sr50 fused to a C-terminal HA tag; not shown: C-terminal HA tag (vector pBIN19-35S::GTW:3HA)) MNIVTGAMGSLIPKLGELLMDEYKLHKRIKKDVEFLKKELESMHAALIKVGEVPRDQLDRQVKLWADEVRELSYNMEDVVDKFLVRVDGDGIQQPHDNSGRFKELKNKMIGLFKKGRNHHRIADAIKEIKEQLQEVAARRDRNKVAVPNPMEPITIDPCLRAL |
